Results taken from paper PMC9482650, “Quantitative fragmentomics allow affinity mapping of interactomes” (Nature Communications, 2022).

Assays:
Assay in all cases: holdup assay
Set-up in all cases: key: below the threshold = too weak to quantify, mostly under pKd 3.1 to 4
Details in all cases: plain residues with an end cap or a label only (N-terminal biotin on a linker: ado-ado)
NHERF3_4, Q5T2W1 = target: T1, NHERF3_4, Q5T2W1
T1 sequence (Q5T2W1 373-468, limits assumed, looked up): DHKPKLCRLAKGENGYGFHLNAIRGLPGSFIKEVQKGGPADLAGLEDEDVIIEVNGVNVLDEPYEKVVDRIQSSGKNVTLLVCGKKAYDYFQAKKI

GRID2IP_2, A4D2P6 = target: GRID2IP_2, A4D2P6
Sequence of GRID2IP_2, A4D2P6 (A4D2P6 272-370): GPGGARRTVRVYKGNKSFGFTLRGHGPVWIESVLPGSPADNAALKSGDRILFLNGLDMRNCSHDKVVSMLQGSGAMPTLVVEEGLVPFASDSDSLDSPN

GOPC, Q9HD26 = target: GOPC, Q9HD26
SNTG2, Q9NY99 = target: T2, SNTG2, Q9NY99
T2 sequence (Q9NY99 68-166, limits assumed, looked up): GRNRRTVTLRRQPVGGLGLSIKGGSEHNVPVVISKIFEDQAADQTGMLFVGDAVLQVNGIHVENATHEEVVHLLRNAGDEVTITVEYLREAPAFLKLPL

GRIP2_4, Q9C0E4 = target: GRIP2_4, Q9C0E4
Sequence of GRIP2_4, Q9C0E4 (Q9C0E4 446-548): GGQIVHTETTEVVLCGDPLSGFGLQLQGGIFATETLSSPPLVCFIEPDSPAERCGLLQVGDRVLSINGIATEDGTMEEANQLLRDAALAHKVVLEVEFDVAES

DLG3_1, Q92796 = target: T3, DLG3_1, Q92796
T3 sequence (Q92796 125-227, limits assumed, looked up): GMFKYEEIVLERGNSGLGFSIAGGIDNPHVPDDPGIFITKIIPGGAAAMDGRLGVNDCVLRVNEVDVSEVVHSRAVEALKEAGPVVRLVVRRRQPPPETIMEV

APBA2_1, Q99767 = target: T4, APBA2_1, Q99767
T4 sequence (Q99767 563-664, limits assumed, looked up): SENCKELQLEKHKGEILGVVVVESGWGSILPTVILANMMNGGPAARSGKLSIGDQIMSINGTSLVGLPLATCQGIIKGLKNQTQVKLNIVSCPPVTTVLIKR

MAST1, Q9Y2H9 = target: MAST1, Q9Y2H9
Sequence of MAST1, Q9Y2H9 (Q9Y2H9 962-1065): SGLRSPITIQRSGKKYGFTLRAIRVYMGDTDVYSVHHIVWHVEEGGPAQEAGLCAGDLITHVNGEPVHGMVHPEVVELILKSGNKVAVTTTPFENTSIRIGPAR

LNX1_1, Q8TBB1 = target: LNX1_1, Q8TBB1
Sequence of LNX1_1, Q8TBB1 (Q8TBB1 261-371): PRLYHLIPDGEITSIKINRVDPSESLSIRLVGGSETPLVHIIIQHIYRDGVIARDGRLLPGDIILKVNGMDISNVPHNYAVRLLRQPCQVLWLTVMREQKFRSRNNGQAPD

MPDZ_12, O75970 = target: T5, MPDZ_12, O75970
T5 sequence (O75970 1857-1958, limits assumed, looked up): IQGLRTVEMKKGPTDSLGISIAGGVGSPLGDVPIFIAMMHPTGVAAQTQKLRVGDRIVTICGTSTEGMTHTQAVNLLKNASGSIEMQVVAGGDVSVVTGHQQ

DLG3_2, Q92796 = target: T6, DLG3_2, Q92796
T6 sequence (Q92796 221-321, limits assumed, looked up): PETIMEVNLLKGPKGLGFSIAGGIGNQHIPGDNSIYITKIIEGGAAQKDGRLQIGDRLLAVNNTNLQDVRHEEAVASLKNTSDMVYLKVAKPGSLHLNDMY

DVL3, Q92997 = target: T7, DVL3, Q92997
T7 sequence (Q92997 244-331, limits assumed, looked up): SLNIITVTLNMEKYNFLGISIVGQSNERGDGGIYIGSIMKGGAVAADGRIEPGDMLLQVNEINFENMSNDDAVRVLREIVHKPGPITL

Inadl_6, Q8NI35 = target: Inadl_6, Q8NI35
Sequence of Inadl_6, Q8NI35 (Q8NI35 1058-1167): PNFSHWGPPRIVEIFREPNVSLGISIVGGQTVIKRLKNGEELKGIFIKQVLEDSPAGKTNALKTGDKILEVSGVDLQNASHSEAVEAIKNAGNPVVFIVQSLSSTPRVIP

SCRIB_1, Q14160 = target: SCRIB_1, Q14160
Sequence of SCRIB_1, Q14160 (Q14160 718-814): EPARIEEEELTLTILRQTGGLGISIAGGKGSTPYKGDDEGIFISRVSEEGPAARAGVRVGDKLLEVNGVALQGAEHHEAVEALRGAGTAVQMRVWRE

LIMK2, P53671 = target: LIMK2, P53671
Sequence of LIMK2, P53671 (P53671 143-248): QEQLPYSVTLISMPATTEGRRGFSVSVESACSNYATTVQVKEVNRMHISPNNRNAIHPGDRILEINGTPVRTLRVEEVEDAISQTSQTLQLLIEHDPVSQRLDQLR

TJP1_2, Q07157 = target: TJP1_2, Q07157
Sequence of TJP1_2, Q07157 (Q07157 181-274): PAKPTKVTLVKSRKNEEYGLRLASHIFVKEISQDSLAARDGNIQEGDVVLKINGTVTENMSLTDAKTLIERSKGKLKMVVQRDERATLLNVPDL

FRMPD2_1, Q68DX3 = target: FRMPD2_1, Q68DX3
Sequence of FRMPD2_1, Q68DX3 (Q68DX3 770-861): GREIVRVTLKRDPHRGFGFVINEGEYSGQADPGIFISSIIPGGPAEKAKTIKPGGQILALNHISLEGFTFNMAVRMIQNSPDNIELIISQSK

GORASP2, Q9H8Y8 = target: GORASP2, Q9H8Y8
SCRIB_2, Q14160 = target: SCRIB_2, Q14160
Sequence of SCRIB_2, Q14160 (Q14160 857-960): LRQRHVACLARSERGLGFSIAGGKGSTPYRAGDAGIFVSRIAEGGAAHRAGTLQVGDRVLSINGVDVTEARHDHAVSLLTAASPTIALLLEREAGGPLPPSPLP

PARD3_3, Q8TEW0 = target: PARD3_3, Q8TEW0
Sequence of PARD3_3, Q8TEW0 (Q8TEW0 582-685): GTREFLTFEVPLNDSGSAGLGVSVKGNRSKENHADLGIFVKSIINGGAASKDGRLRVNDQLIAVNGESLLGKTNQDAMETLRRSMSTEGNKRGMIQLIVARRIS

SHANK1, Q9Y566 = target: T8, SHANK1, Q9Y566
T8 sequence (Q9Y566 658-767, limits assumed, looked up): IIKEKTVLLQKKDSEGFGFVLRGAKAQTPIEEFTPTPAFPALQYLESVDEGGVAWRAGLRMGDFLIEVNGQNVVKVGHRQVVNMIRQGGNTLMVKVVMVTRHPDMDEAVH

RHPN1, Q8TCX5 = target: T9, RHPN1, Q8TCX5
T9 sequence (Q8TCX5 508-602, limits assumed, looked up): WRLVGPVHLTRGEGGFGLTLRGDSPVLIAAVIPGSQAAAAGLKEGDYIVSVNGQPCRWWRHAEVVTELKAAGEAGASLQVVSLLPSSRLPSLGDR

LNX1_2, Q8TBB1 = target: LNX1_2, Q8TBB1
Sequence of LNX1_2, Q8TBB1 (Q8TBB1 371-470): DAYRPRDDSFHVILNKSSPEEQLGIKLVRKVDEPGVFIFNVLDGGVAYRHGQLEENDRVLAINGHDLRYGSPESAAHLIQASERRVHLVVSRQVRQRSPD

IL16_3, Q14005 = target: IL16_3, Q14005
Sequence of IL16_3, Q14005 (Q14005 1107-1207): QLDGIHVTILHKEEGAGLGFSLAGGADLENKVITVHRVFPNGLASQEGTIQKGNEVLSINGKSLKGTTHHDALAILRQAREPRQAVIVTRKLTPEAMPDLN

Inadl_8, Q8NI35 = target: Inadl_8, Q8NI35
Sequence of Inadl_8, Q8NI35 (Q8NI35 1425-1530): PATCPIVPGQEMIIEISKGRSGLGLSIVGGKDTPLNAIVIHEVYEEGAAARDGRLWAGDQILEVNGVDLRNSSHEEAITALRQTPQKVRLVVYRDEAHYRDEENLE

PARD3B_1, Q8TEW8 = target: T10, PARD3B_1, Q8TEW8
T10 sequence (Q8TEW8 196-299, limits assumed, looked up): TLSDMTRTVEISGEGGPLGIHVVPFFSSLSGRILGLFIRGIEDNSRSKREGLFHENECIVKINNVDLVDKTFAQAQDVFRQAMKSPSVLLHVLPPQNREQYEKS

MAST2, Q6P0Q8 = target: MAST2, Q6P0Q8
Sequence of MAST2, Q6P0Q8 (Q6P0Q8 1099-1202): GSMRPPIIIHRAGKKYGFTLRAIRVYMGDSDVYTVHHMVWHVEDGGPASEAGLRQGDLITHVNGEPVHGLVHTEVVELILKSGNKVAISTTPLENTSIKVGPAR

B1: ADGRA1, Q86SQ6 (peptide)
chain: TGPWKNETTV
NHERF3_4, Q5T2W1
  pKd: below the threshold
GRID2IP_2, A4D2P6
  pKd: below the threshold
GOPC, Q9HD26
  pKd: 3.69
SNTG2, Q9NY99
  pKd: 4.26
GRIP2_4, Q9C0E4
  pKd: below the threshold
DLG3_1, Q92796
  pKd: 4.47
APBA2_1, Q99767
  pKd: below the threshold
MAST1, Q9Y2H9
  pKd: 4.71
LNX1_1, Q8TBB1
  pKd: below the threshold
MPDZ_12, O75970
  pKd: below the threshold
DLG3_2, Q92796
  pKd: 5.01
DVL3, Q92997
  pKd: below the threshold
Inadl_6, Q8NI35
  pKd: below the threshold
SCRIB_1, Q14160
  pKd: 4.34
LIMK2, P53671
  pKd: below the threshold
TJP1_2, Q07157
  pKd: below the threshold
FRMPD2_1, Q68DX3
  pKd: below the threshold
GORASP2, Q9H8Y8
  pKd: 3.57
SCRIB_2, Q14160
  pKd: 4.25
PARD3_3, Q8TEW0
  pKd: below the threshold
SHANK1, Q9Y566
  pKd: below the threshold
RHPN1, Q8TCX5
  pKd: 4.55
LNX1_2, Q8TBB1
  pKd: 3.62
IL16_3, Q14005
  pKd: below the threshold
Inadl_8, Q8NI35
  pKd: below the threshold
PARD3B_1, Q8TEW8
  pKd: below the threshold
MAST2, Q6P0Q8
  pKd: 5.31

B2: PLCB1, Q9NQ66 (peptide)
chain: IPGKEFDTPL
NHERF3_4, Q5T2W1
  pKd: 4.31
GRID2IP_2, A4D2P6
  pKd: below the threshold
GOPC, Q9HD26
  pKd: below the threshold
SNTG2, Q9NY99
  pKd: below the threshold
GRIP2_4, Q9C0E4
  pKd: below the threshold
DLG3_1, Q92796
  pKd: below the threshold
APBA2_1, Q99767
  pKd: below the threshold
MAST1, Q9Y2H9
  pKd: 4.31
LNX1_1, Q8TBB1
  pKd: below the threshold
MPDZ_12, O75970
  pKd: below the threshold
DLG3_2, Q92796
  pKd: below the threshold
DVL3, Q92997
  pKd: below the threshold
Inadl_6, Q8NI35
  pKd: below the threshold
SCRIB_1, Q14160
  pKd: 3.93
LIMK2, P53671
  pKd: below the threshold
TJP1_2, Q07157
  pKd: below the threshold
FRMPD2_1, Q68DX3
  pKd: below the threshold
GORASP2, Q9H8Y8
  pKd: below the threshold
SCRIB_2, Q14160
  pKd: below the threshold
PARD3_3, Q8TEW0
  pKd: below the threshold
SHANK1, Q9Y566
  pKd: 3.96
RHPN1, Q8TCX5
  pKd: 3.65
LNX1_2, Q8TBB1
  pKd: below the threshold
IL16_3, Q14005
  pKd: below the threshold
Inadl_8, Q8NI35
  pKd: below the threshold
PARD3B_1, Q8TEW8
  pKd: below the threshold
MAST2, Q6P0Q8
  pKd: 4.95

B3: TNRC6A, Q8NDV7 (peptide)
chain: DHLGGGGESM
NHERF3_4, Q5T2W1
  pKd: below the threshold
GRID2IP_2, A4D2P6
  pKd: below the threshold
GOPC, Q9HD26
  pKd: below the threshold
SNTG2, Q9NY99
  pKd: below the threshold
GRIP2_4, Q9C0E4
  pKd: below the threshold
DLG3_1, Q92796
  pKd: below the threshold
APBA2_1, Q99767
  pKd: below the threshold
MAST1, Q9Y2H9
  pKd: 3.91
LNX1_1, Q8TBB1
  pKd: below the threshold
MPDZ_12, O75970
  pKd: below the threshold
DLG3_2, Q92796
  pKd: below the threshold
DVL3, Q92997
  pKd: below the threshold
Inadl_6, Q8NI35
  pKd: below the threshold
SCRIB_1, Q14160
  pKd: below the threshold
LIMK2, P53671
  pKd: below the threshold
TJP1_2, Q07157
  pKd: below the threshold
FRMPD2_1, Q68DX3
  pKd: below the threshold
GORASP2, Q9H8Y8
  pKd: below the threshold
SCRIB_2, Q14160
  pKd: below the threshold
PARD3_3, Q8TEW0
  pKd: below the threshold
SHANK1, Q9Y566
  pKd: below the threshold
RHPN1, Q8TCX5
  pKd: below the threshold
LNX1_2, Q8TBB1
  pKd: below the threshold
IL16_3, Q14005
  pKd: below the threshold
Inadl_8, Q8NI35
  pKd: below the threshold
PARD3B_1, Q8TEW8
  pKd: 3.59
MAST2, Q6P0Q8
  pKd: 3.62

B4: IGF1R, P08069 (peptide)
chain: ALPLPQSSTC
NHERF3_4, Q5T2W1
  pKd: below the threshold
GRID2IP_2, A4D2P6
  pKd: 3.99
GOPC, Q9HD26
  pKd: 3.55
SNTG2, Q9NY99
  pKd: below the threshold
GRIP2_4, Q9C0E4
  pKd: below the threshold
DLG3_1, Q92796
  pKd: below the threshold
APBA2_1, Q99767
  pKd: below the threshold
MAST1, Q9Y2H9
  pKd: below the threshold
LNX1_1, Q8TBB1
  pKd: 3.58
MPDZ_12, O75970
  pKd: below the threshold
DLG3_2, Q92796
  pKd: 4.22
DVL3, Q92997
  pKd: below the threshold
Inadl_6, Q8NI35
  pKd: below the threshold
SCRIB_1, Q14160
  pKd: 3.8
LIMK2, P53671
  pKd: below the threshold
TJP1_2, Q07157
  pKd: below the threshold
FRMPD2_1, Q68DX3
  pKd: below the threshold
GORASP2, Q9H8Y8
  pKd: below the threshold
SCRIB_2, Q14160
  pKd: below the threshold
PARD3_3, Q8TEW0
  pKd: below the threshold
SHANK1, Q9Y566
  pKd: below the threshold
RHPN1, Q8TCX5
  pKd: 3.58
LNX1_2, Q8TBB1
  pKd: below the threshold
IL16_3, Q14005
  pKd: below the threshold
Inadl_8, Q8NI35
  pKd: 3.66
PARD3B_1, Q8TEW8
  pKd: below the threshold
MAST2, Q6P0Q8
  pKd: 4.31

B5: GNG4, P50150 (peptide)
chain: REKKFFCTIL
NHERF3_4, Q5T2W1
  pKd: 5.36
GRID2IP_2, A4D2P6
  pKd: 5.07
GOPC, Q9HD26
  pKd: 5.18
SNTG2, Q9NY99
  pKd: 4.35
GRIP2_4, Q9C0E4
  pKd: below the threshold
DLG3_1, Q92796
  pKd: 3.65
APBA2_1, Q99767
  pKd: below the threshold
MAST1, Q9Y2H9
  pKd: 5.2
LNX1_1, Q8TBB1
  pKd: 5.09
MPDZ_12, O75970
  pKd: 3.62
DLG3_2, Q92796
  pKd: 4.13
DVL3, Q92997
  pKd: 4.33
Inadl_6, Q8NI35
  pKd: 4.22
SCRIB_1, Q14160
  pKd: 5.33
LIMK2, P53671
  pKd: below the threshold
TJP1_2, Q07157
  pKd: below the threshold
FRMPD2_1, Q68DX3
  pKd: 3.88
GORASP2, Q9H8Y8
  pKd: 5.05
SCRIB_2, Q14160
  pKd: below the threshold
PARD3_3, Q8TEW0
  pKd: 4.27
SHANK1, Q9Y566
  pKd: 5.21
RHPN1, Q8TCX5
  pKd: 4.48
LNX1_2, Q8TBB1
  pKd: below the threshold
IL16_3, Q14005
  pKd: below the threshold
Inadl_8, Q8NI35
  pKd: 4.52
PARD3B_1, Q8TEW8
  pKd: 5
MAST2, Q6P0Q8
  pKd: 5.62
